Laboratory results from US6699662, “Inhibitors of staphylococcus SarA protein function involved in the expression of staphylococcal virulence factors and the use thereof in treating staphylococcal infections” (University of Arkansas).

Target: T1, SarA (staphylococcal accessory regulator A), strain DB (Staphylococcus aureus, UniProt Q2G2U9 SEQ:1-124)
T1 sequence: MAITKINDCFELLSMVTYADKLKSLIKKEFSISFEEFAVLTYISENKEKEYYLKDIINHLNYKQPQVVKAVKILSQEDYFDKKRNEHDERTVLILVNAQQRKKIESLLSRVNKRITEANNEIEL
Test: footprint
Settings: tags: none (untagged full-length, expressed from pET9a in E. coli BL21(DE3)pLys); chain copies: 2 (dimer, stated); label: 32P

B1: agr P2-P3 inter-promoter region (cloned in pBKH50; DNase I footprint fragment about 240 bp with vector ends) (dsDNA)
DNA 1: CATTAAAACATGCTAAAAGCATTTATTTTCCAATTTTTCTTAACTAGTCGTTTTTTATTCTTAACTGTAAATTTTTTTATGTTAAAATATTAAATACAAATTACATTTAACAGTTAAGTATTTATTTCCTACAGTTAGGCAATATAATGATAAAAGATTGTACTAAATCGTATAATGACAGGATCCCCGG
DNA 2: CCGGGGATCCTGTCATTATACGATTTAGTACAATCTTTTATCATTATATTGCCTAACTGTAGGAAATAAATACTTAACTGTTAAATGTAATTTGTATTTAATATTTTAACATAAAAAAATTTACAGTTAAGAATAAAAAACGACTAGTTAAGAAAAATTGGAAAATAAATGCTTTTAGCATGTTTTAAGT
apparent K (half saturation): 4.24 pM
